According to US20190336574A1 (TRUSTEES OF PRINCETON UNIVERSITY, published 2019):

T1: His6-SND1ΔC (SND1 residues 1-339) (human, UniProt Q7KZF4 1-339)
T1 construct: not shown: N-terminal His tag (His6, His8 or His) with TEV site, pQlink vector
T1 sequence: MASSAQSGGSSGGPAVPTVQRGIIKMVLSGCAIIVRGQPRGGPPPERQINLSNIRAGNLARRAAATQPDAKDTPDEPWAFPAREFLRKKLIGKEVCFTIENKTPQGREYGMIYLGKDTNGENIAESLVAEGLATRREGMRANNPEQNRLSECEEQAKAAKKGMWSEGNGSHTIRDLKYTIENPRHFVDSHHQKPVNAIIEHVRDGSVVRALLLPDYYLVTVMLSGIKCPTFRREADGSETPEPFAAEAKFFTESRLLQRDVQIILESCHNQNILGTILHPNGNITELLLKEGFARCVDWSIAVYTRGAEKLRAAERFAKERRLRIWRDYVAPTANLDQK

T2: murine SND1, wild type (mouse, UniProt Q78PY7 1-910)
T2 construct: Endogenous protein of murine PyMT mammary tumor cells; also called SND1 (in PyMT tumor cells); WT shRNA-resistant murine SND1
T2 sequence (looked up): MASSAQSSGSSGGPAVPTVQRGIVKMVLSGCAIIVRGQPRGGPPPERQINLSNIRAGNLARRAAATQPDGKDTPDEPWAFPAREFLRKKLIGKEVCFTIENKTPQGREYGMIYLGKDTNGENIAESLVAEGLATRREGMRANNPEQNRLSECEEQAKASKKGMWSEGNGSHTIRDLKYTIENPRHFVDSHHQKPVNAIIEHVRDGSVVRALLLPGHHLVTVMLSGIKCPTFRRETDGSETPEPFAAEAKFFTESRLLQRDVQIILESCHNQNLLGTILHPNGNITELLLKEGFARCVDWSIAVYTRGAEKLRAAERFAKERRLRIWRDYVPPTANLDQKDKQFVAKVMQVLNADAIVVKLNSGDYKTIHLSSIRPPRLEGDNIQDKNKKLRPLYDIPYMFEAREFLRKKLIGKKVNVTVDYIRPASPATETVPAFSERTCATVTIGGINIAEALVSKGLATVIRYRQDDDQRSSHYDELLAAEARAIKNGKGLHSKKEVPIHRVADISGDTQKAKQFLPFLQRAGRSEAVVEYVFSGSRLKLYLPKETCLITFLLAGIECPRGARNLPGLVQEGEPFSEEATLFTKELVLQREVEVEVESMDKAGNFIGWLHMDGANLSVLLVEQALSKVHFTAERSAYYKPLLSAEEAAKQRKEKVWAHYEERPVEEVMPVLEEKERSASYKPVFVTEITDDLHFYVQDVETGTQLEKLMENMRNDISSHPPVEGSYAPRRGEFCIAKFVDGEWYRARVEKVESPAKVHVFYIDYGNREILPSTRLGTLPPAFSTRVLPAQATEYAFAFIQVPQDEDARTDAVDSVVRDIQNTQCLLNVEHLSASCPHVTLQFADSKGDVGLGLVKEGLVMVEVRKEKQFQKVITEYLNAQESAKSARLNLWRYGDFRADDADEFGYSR

B1: GST-MTDH (364-582) W401A (protein, not shown: a dimerising Fc or GST)
chain: YQWDVSRNQPYIDDEWSGLNGLSSADPNSDWNAPAEEAGNWVDEERASLLKSQEPIPDDQKVSDDDKEKGEGALPTGKSKKKKKKKKKQGEDNSTAQDTEELEKEIREDLPVNTSKTRPKQEKAFSLKTISTSDPAEVLVKNSQPIKTLPPATSTEPSVILSKSDSDKSSSQVPPILQETDKSKSNTKQNSVPPSQTKSETSWESPKQIKKKKKARRET
B2: GST-MTDH (364-582) W394D (protein, not shown: a dimerising Fc or GST)
chain: YQWDVSRNQPYIDDEWSGLNGLSSADPNSDDNAPAEEWGNWVDEERASLLKSQEPIPDDQKVSDDDKEKGEGALPTGKSKKKKKKKKKQGEDNSTAQDTEELEKEIREDLPVNTSKTRPKQEKAFSLKTISTSDPAEVLVKNSQPIKTLPPATSTEPSVILSKSDSDKSSSQVPPILQETDKSKSNTKQNSVPPSQTKSETSWESPKQIKKKKKARRET
B3: GST-MTDH (364-582) TPM1 (D389R, D393R, W394D) (other)
chain: YQWDVSRNQPYIDDEWSGLNGLSSARPNSRDNAPAEEWGNWVDEERASLLKSQEPIPDDQKVSDDDKEKGEGALPTGKSKKKKKKKKKQGEDNSTAQDTEELEKEIREDLPVNTSKTRPKQEKAFSLKTISTSDPAEVLVKNSQPIKTLPPATSTEPSVILSKSDSDKSSSQVPPILQETDKSKSNTKQNSVPPSQTKSETSWESPKQIKKKKKARRET
notes: not shown: N-terminal GST tag with TEV site, pQlink vector
B4: GST-MTDH (364-582) TPM2 (E399R, E400R, W401D) (other)
chain: YQWDVSRNQPYIDDEWSGLNGLSSADPNSDWNAPARRDGNWVDEERASLLKSQEPIPDDQKVSDDDKEKGEGALPTGKSKKKKKKKKKQGEDNSTAQDTEELEKEIREDLPVNTSKTRPKQEKAFSLKTISTSDPAEVLVKNSQPIKTLPPATSTEPSVILSKSDSDKSSSQVPPILQETDKSKSNTKQNSVPPSQTKSETSWESPKQIKKKKKARRET
notes: as for B3
B5: murine MTDH TPM2 (E396R, E397R, W398D) (other, mouse, UniProt Q80WJ7 1-579, looked up)
chain: MAARSWQDELAQQAEEGSARLRELLSVGLGFLRTELGLDLGLEPKRYPGWVILVGTGALGLLLLFLLGYGWAAACAGARKKRRSPPRKREEAAPPTPAPDDLAQLKNLRSEEQKKKNRKKLPEKPKPNGRTVEVPEDEVVRNPRSITAKQAPETDKKNEKSKKNKKKSKSDAKAVQNSSRHDGKEVDEGAWETKISHREKRQQRKRDKVLTDSGSLDSTIPGIENIITVTTEQLTTASFPVGSKKNKGDSHLNVQVSNFKSGKGDSTLQVSSRLNENLTVNGGGWSEKSVKLSSQLSEEKWNSVPPASAGKRKTEPSAWTQDTGDTNANGKDWGRNWSDRSIFSGIGSTAEPVSQSTTSDYQWDVSRNQPYIDDEWSGLNGLSSADPSSDWNAPARRDGNWVDEDRASLLKSQEPISNDQKVSDDDKEKGEGALPTGKSKKKKKKKKKQGEDNSHTQDTEDLEKDTREELPVNTSKARPKQEKACSLKTMSTSDPAEVLIKNSQPVKTLPPAISAEPSITLSKGDSDNSSSQVPPMLQDTDKPKSNAKQNSVPPSQTKSETNWESPKQIKKKKKARRET
notes: also called TPM2 (murine form)
B6: murine MTDH W391A (printed as W394A in human numbering) (other, mouse, UniProt Q80WJ7 1-579, looked up)
chain: MAARSWQDELAQQAEEGSARLRELLSVGLGFLRTELGLDLGLEPKRYPGWVILVGTGALGLLLLFLLGYGWAAACAGARKKRRSPPRKREEAAPPTPAPDDLAQLKNLRSEEQKKKNRKKLPEKPKPNGRTVEVPEDEVVRNPRSITAKQAPETDKKNEKSKKNKKKSKSDAKAVQNSSRHDGKEVDEGAWETKISHREKRQQRKRDKVLTDSGSLDSTIPGIENIITVTTEQLTTASFPVGSKKNKGDSHLNVQVSNFKSGKGDSTLQVSSRLNENLTVNGGGWSEKSVKLSSQLSEEKWNSVPPASAGKRKTEPSAWTQDTGDTNANGKDWGRNWSDRSIFSGIGSTAEPVSQSTTSDYQWDVSRNQPYIDDEWSGLNGLSSADPSSDANAPAEEWGNWVDEDRASLLKSQEPISNDQKVSDDDKEKGEGALPTGKSKKKKKKKKKQGEDNSHTQDTEDLEKDTREELPVNTSKARPKQEKACSLKTMSTSDPAEVLIKNSQPVKTLPPAISAEPSITLSKGDSDNSSSQVPPMLQDTDKPKSNAKQNSVPPSQTKSETNWESPKQIKKKKKARRET
notes: also called W394A (murine form)
B7: murine MTDH W398A (printed as W401A in human numbering) (other, mouse, UniProt Q80WJ7 1-579, looked up)
chain: MAARSWQDELAQQAEEGSARLRELLSVGLGFLRTELGLDLGLEPKRYPGWVILVGTGALGLLLLFLLGYGWAAACAGARKKRRSPPRKREEAAPPTPAPDDLAQLKNLRSEEQKKKNRKKLPEKPKPNGRTVEVPEDEVVRNPRSITAKQAPETDKKNEKSKKNKKKSKSDAKAVQNSSRHDGKEVDEGAWETKISHREKRQQRKRDKVLTDSGSLDSTIPGIENIITVTTEQLTTASFPVGSKKNKGDSHLNVQVSNFKSGKGDSTLQVSSRLNENLTVNGGGWSEKSVKLSSQLSEEKWNSVPPASAGKRKTEPSAWTQDTGDTNANGKDWGRNWSDRSIFSGIGSTAEPVSQSTTSDYQWDVSRNQPYIDDEWSGLNGLSSADPSSDWNAPAEEAGNWVDEDRASLLKSQEPISNDQKVSDDDKEKGEGALPTGKSKKKKKKKKKQGEDNSHTQDTEDLEKDTREELPVNTSKARPKQEKACSLKTMSTSDPAEVLIKNSQPVKTLPPAISAEPSITLSKGDSDNSSSQVPPMLQDTDKPKSNAKQNSVPPSQTKSETNWESPKQIKKKKKARRET
notes: also called W401A (murine form)
B8: GST-MTDH (1-289) (other)
chain: MAARSWQDELAQQAEEGSARLREMLSVGLGFLRTELGLDLGLEPKRYPGWVILVGTGALGLLLLFLLGYGWAAACAGSRKKRRSPPRKREEAAAVPAAAPDDLALLKNLRSEEQKKKNRKKLSEKPKPNGRTVEVAEGEAVRTPQSVTAKQPPEIDKKNEKSKKNKKKSKSDAKAVQNSSRHDGKEVDEGAWETKISHREKRQQRKRDKVLTDSGSLDSTIPGIENTITVTTEQLTTASFPVGSKKNKGDSHLNVQVSNFKSGKGDSTLQVSSGLNENLTVNGGGWNEK
notes: as for B3

What was measured:
[1] = target: His-SND1 (16-339), SN1/2 domains, wild type (human) (UniProt Q7KZF4); test: GST pull-down on glutathione resin, SDS-PAGE, Coomassie blue; normalised percentage of binding, mean±SEM of three experiments
[2] = target: T1, His6-SND1ΔC (SND1 residues 1-339); test: GST pull-down of His6-SND1ΔC, SDS-PAGE, Coomassie
From the text: FIGS. 7A-E represents determination of key regions and residues mediating the MTDH-SND1 interaction. (FIG. 7A) Schematics of MTDH fragments and mutants with indicated SND1-binding capability. + indicates binding and − indicates no binding based on results shown below. Two putative nuclear localization signals are residues 432-451 for NLS2 and residues 561-580 for NLS3. […] (FIG. 7B) Pulldown of His6-SND1ΔC by GST-tagged MTDH fragments with indicated boundaries. The bound proteins were examined by SDS-PAGE and visualized by Coomassie blue staining. […] For (FIG. 7B) and (FIG. 7C), 1/10 of the His6-SND1ΔC input was shown, and GST alone was used as a negative control. Representative results of 3 independent experiments are shown. (FIG. 7D, FIG. 7E) Lysates from HEK293T cells expressing the indicated ectopic human SND1, AGO2 or MTDH were immunoprecipitated with anti-Myc and immunoblotted with the indicated antibodies.
TPM1 comprises mutations D389R, D393R and W394D. TPM2 comprises mutations E399R, E400R and W401D. TPM3 comprises mutations W404D, D406R and E407R. […] The mutations are also set out in Table 3.

[3] = target: T2, murine SND1, wild type; test: co-IP (anti-MTDH) from reconstituted PyMT;Mtdh-/- tumor cells, western blot
From the text: IP lysates were subjected to western blotting with indicated antibodies.
In particular, genetic deletion of Mtdh in mice impairs the tumor-initiating potential of mammary epithelial cells transformed by diverse oncogenes (PyMT, Wnt, ErbB2) or carcinogen stimuli, and this defect can be readily rescued by reintroducing MTDH into Mtdh-knockout (Mtdh−/−) tumor cells by lentiviral transduction. To test whether interacting with SND1 is important for the tumor-initiating effect of MTDH, the murine form of WT or mutant MTDH (W394A or W401A, corresponding mutations in mouse are W391A, W398A) was stably expressed in mammary tumor cells from PyMT;Mtdh−/− mice. […] To examine how MTDH mutations affect tumor formation in vivo, PyMT;Mtdh−/− tumor cells were orthotopically transplanted into the mammary fat pads of WT recipient mice. […] Furthermore, the size of tumors formed by PyMT;Mtdh−/− tumor cells reconstituted with mutant MTDH was much smaller than that with WT MTDH (FIG. 23D-E).

Binder | binding result [2] | binding result [3] | other results
B1 |  |  | % Maximum binding [1]: 6%
B2 |  |  | % Maximum binding [1]: 4%
B3 | no binding |  | 
B4 | no binding |  | 
B5 |  | no binding | 
B6 |  | no binding | 
B7 |  | no binding | 
B8 | no binding |  | 
